Data as given in patent publication US20240424023A1.

Assays:
[1] = target: CD80-mCherry expressed on DG75 cells (UniProt P33681); test: cell-based or functional assay
[2] = target: CD86-mCherry expressed on DG75 cells (UniProt P42081); test: cell-based or functional assay
Sequence of UniProt P42081 (P42081 24-329): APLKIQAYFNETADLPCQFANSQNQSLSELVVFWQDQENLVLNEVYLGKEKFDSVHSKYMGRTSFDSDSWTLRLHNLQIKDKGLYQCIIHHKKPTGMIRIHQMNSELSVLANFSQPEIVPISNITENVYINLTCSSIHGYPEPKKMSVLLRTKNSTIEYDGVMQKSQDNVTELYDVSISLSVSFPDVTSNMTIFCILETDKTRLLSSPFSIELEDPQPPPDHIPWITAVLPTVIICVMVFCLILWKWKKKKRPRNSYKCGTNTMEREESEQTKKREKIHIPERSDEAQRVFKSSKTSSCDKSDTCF

Sequence of UniProt P33681 (P33681 35-288): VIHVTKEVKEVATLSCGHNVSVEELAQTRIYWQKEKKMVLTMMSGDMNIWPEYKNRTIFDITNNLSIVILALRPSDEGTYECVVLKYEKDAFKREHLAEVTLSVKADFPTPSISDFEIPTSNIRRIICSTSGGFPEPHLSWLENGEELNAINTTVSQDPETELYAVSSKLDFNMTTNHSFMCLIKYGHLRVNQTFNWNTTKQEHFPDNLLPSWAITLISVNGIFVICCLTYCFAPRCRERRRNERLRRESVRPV

Substance: CTLA4 expressed from a CTLA4-P2A-GFP transgene in human T cells (exon 1 cDNA insertion, intron 1 insertion of exons 2-4 with WPRE donor, or lentiviral vector) (from UniProt P16410 36-223) (receptor)
- transendocytosis, cells edited with the cDNA exon 1 insertion (fold less than unedited cells) [1]: 2
- transendocytosis, cells edited with the cDNA exon 1 insertion (fold less than unedited cells) [2]: 2
